Reference: IntAct's records for PubMed 27456980

B1: Lysosomal cobalamin transport escort protein LMBD1 (Homo sapiens), Q9NUN5 (parent)
chain: MATSGAASAELVIGWCIFGLLLLAILAFCWIYVRKYQSRRESEVVSTITAIFSLAIALITSALLPVDIFLVSYMKNQNGTFKDWANANVSRQIEDTVLYGYYTLYSVILFCVFFWIPFVYFYYEEKDDDDTSKCTQIKTALKYTLGFVVICALLLLVGAFVPLNVPNNKNSTEWEKVKSLFEELGSSHGLAALSFSISSLTLIGMLAAITYTAYGMSALPLNLIKGTRSAAYERLENTEDIEEVEQHIQTIKSKSKDGRPLPARDKRALKQFEERLRTLKKRERHLEFIENSWWTKFCGALRPLKIVWGIFFILVALLFVISLFLSNLDKALHSAGIDSGFIIFGANLSNPLNMLLPLLQTVFPLDYILITIIIMYFIFTSMAGIRNIGIWFFWIRLYKIRRGRTRPQALLFLCMILLLIVLHTSYMIYSLAPQYVMYGSQNYLIETNITSDNHKGNSTLSVPKRCDADAPEDQCTVTRTYLFLHKFWFFSAAYYFGNWAFLGVFLIGLIVSCCKGKKSVIEGVDEDSDISDDEPSVYSA
partner: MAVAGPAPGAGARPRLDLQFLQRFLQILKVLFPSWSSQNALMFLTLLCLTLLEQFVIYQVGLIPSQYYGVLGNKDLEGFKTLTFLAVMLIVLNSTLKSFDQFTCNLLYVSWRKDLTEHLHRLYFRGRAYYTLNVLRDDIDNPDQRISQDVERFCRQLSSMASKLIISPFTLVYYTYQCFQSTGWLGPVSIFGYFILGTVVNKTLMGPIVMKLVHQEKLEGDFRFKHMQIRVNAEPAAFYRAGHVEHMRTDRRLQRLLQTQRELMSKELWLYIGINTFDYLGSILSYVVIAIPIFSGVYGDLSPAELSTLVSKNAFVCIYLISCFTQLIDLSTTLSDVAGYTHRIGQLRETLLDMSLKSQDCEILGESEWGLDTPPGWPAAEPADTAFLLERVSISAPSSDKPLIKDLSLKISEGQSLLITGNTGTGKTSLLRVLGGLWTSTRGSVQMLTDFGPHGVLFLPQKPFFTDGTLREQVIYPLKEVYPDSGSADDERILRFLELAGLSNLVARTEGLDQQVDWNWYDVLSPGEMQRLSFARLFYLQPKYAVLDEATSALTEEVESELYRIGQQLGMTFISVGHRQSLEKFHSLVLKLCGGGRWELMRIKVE

Variants of: B1
Details: with abcd4_human ABCD4, O14678

| Variant | effect of a mutation on the interaction |
| --- | --- |
| MATSGAASAELVIGWCIFGLLLLAILAFCWIYVRKYQSRRESEVVSTITAIFSLAIALITSALLPVDIFLVSYMKNQNGTFKDWANANVSRQIEDTVLYGYYTLYSVILFCVFFWIPFVYFYYEEKDDDDTSKCTQIKTALKYTLGFVVICALLLLVGAFVPLNVPNNKNSTEWEKVKSLFEELGSSHGLAALSFSISSLTLIGMLAAITYTAYGMSALPLNLIKGTRSAAAAAAENTEDIEEVEQHIQTIKSKSKDGRPLPARDKRALKQFEERLRTLKKRERHLEFIENSWWTKFCGALRPLKIVWGIFFILVALLFVISLFLSNLDKALHSAGIDSGFIIFGANLSNPLNMLLPLLQTVFPLDYILITIIIMYFIFTSMAGIRNIGIWFFWIRLYKIRRGRTRPQALLFLCMILLLIVLHTSYMIYSLAPQYVMYGSQNYLIETNITSDNHKGNSTLSVPKRCDADAPEDQCTVTRTYLFLHKFWFFSAAYYFGNWAFLGVFLIGLIVSCCKGKKSVIEGVDEDSDISDDEPSVYSA [Y232A;E233A;R234A;L235A] | with no effect |
| MATSGAASAELVIGWCIFGLLLLAILAFCWIYVRKYQSRRESEVVSTITAIFSLAIALITSALLPVDIFLVSYMKNQNGTFKDWANANVSRQIEDTVLYGYYTLYSVILFCVFFWIPFVYFYYEEKDDDDTSKCTQIKTALKYTLGFVVICALLLLVGAFVPLNVPNNKNSTEWEKVKSLFEELGSSHGLAALSFSISSLTLIGMLAAITYTAYGMSALPLNLIKGTRSAAYERLENTEDIEEVEQHIQTIKSKSKDGRPLPARDKRALKQFEERLRTLKKRERHLEFIENSWAAAACGALRPLKIVWGIFFILVALLFVISLFLSNLDKALHSAGIDSGFIIFGANLSNPLNMLLPLLQTVFPLDYILITIIIMYFIFTSMAGIRNIGIWFFWIRLYKIRRGRTRPQALLFLCMILLLIVLHTSYMIYSLAPQYVMYGSQNYLIETNITSDNHKGNSTLSVPKRCDADAPEDQCTVTRTYLFLHKFWFFSAAYYFGNWAFLGVFLIGLIVSCCKGKKSVIEGVDEDSDISDDEPSVYSA [W294A;T295A;K296A;F297A] | with no effect |
